The target of one assay is FcγRIa (human) (UniProt P12314). In words: BLI; ForteBio Octet QKe; FcγRIa immobilised on HIS1K sensor; antibody 50 nM to 3.12 nM in solution; 120 s binding and 120 s dissociation. On the technique in general: BLI is a label-free optical method that tracks binding on a fibre tip over time.
A further assay addresses FcγRIIIa_V158 (human). In words: BLI; ForteBio Octet QKe; FcγRIIIa_F158 or FcγRIIIa_V158 (5 μg/mL) immobilised on HIS1K sensor; antibody 500 nM to 31.25 nM in solution; 60 s binding and 60 s dissociation.
For another assay, the target named is FcγRIIa_R131 (human). As to the kind of experiment: BLI; ForteBio Octet QKe; FcγRIIa_R131 or FcγRIIa_H131 immobilised on NTA sensor; antibody 200 nM to 12.5 nM in solution; 60 s binding and 60 s dissociation.
The next assay has as its target FcγRIIa_H131 (human) (UniProt P12318). Described as above.
The target of another assay is FcγRIIIa_F158 (human) (UniProt P08637). In words: BLI; ForteBio Octet QKe; FcγRIIIa_F158 or FcγRIIIa_V158 (5 μg/mL) immobilised on HIS1K sensor; antibody 500 nM to 31.25 nM in solution; 60 s binding and 60 s dissociation.
Assay [1] has as its target T1, human PD-1 extracellular domain fused to human IgG Fc domain (PD-1-hFc) (Homo sapiens, UniProt Q15116).
T1 construct: human programmed cell death protein 1 (PD-1), extracellular domain
In words: SPR; Biacore T200; PD-1-hFc immobilised on CM5 chip; antibody 50 nM to 1.56 nM flowed; 180 s binding, 420 s dissociation. The settings on record: both partners purified.

Chain of FcγRIIIa_F158 (human) (P08637 17-254): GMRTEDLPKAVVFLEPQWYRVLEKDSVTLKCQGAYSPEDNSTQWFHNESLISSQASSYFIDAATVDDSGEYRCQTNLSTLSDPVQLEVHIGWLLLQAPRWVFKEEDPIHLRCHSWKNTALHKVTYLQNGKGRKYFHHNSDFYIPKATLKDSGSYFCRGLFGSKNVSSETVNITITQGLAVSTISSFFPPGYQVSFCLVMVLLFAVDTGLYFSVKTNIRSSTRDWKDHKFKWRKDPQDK
Chain of FcγRIa (human) (P12314 16-374): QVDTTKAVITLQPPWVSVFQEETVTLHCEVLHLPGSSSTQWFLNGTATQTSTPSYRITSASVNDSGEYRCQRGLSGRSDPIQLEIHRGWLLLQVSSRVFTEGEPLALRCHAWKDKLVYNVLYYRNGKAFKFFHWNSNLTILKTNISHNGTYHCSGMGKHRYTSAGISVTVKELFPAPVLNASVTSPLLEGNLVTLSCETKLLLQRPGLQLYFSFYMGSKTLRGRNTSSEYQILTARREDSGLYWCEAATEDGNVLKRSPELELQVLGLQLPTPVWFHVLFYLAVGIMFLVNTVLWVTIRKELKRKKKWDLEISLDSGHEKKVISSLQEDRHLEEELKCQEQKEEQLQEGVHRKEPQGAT
T1 sequence (Q15116 25-170): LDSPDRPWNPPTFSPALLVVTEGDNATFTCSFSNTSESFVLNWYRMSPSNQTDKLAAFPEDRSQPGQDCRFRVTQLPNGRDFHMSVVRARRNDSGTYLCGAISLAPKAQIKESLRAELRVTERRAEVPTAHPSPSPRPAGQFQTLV
Chain of FcγRIIa_H131 (human) (P12318 34-317): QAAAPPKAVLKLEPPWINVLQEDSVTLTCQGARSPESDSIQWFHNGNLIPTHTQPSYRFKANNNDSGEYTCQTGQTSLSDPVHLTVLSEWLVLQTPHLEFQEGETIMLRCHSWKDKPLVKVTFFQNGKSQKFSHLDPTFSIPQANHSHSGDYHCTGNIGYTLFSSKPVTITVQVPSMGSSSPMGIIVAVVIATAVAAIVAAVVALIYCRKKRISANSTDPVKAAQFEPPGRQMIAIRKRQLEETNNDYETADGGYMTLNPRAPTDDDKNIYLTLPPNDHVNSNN

B1: AK105 (hG4), an IgG4 backbone version of penpulimab (antibody, V domains shown)
VH: EVQLVESGGGLVQPGGSLRLSCAASGFAFSSYDMSWVRQAPGKGLDWVATISGGGRYTYYPDSVKGRFTISRDNSKNNLYLQMNSLRAEDTALYYCANRYGEAWFAYWGQGTLVTVSS
VL: DIQMTQSPSSMSASVGDRVTFTCRASQDINTYLSWFQQKPGKSPKTLIYRANRLVSGVPSRFSGSGSGQDYTLTISSLQPEDMATYYCLQYDEFPLTFGAGTKLELK
Take B1: the dissociation constant Kd (usually the concentration at which binding is half-saturated) with FcγRIa (human) was determined as 8.25 nM; with FcγRIIIa_V158 (human), 23500 nM; with FcγRIIa_R131 (human), 31.3 nM; with FcγRIIa_H131 (human), 50.7 nM. In addition, the koff (in general, the rate constant with which the complex falls apart) turned out to be 0.00478 s⁻¹ with FcγRIa (human), 0.0837 s⁻¹ in the assay with FcγRIIIa_V158 (human), 0.011 s⁻¹ with FcγRIIa_R131 (human) and 0.013 s⁻¹ with FcγRIIa_H131 (human). In addition, the kon (commonly the second-order rate constant of association) with FcγRIa (human) was 579000 M⁻¹ s⁻¹; with FcγRIIIa_V158 (human), 3560 M⁻¹ s⁻¹; with FcγRIIa_R131 (human), 350000 M⁻¹ s⁻¹; with FcγRIIa_H131 (human), 257000 M⁻¹ s⁻¹.

B2: AK105 (hG1WT), a version of penpulimab with wildtype IgG1 backbone (antibody, V domains shown)
VH: B1 VH
VL: B1 VL
Consider B2, for which the equilibrium dissociation constant (Kd) amounted to 3.35 nM with FcγRIa (human); 197 nM with FcγRIIIa_V158 (human); 238 nM with FcγRIIIa_F158 (human); 34.6 nM in the assay with FcγRIIa_R131 (human); 57.4 nM with FcγRIIa_H131 (human). Moreover, the koff worked out at 0.00213 s⁻¹ in the assay with FcγRIa (human); 0.0329 s⁻¹ with FcγRIIIa_V158 (human); 0.04 s⁻¹ in the assay with FcγRIIIa_F158 (human); 0.0228 s⁻¹ with FcγRIIa_R131 (human); 0.0267 s⁻¹ with FcγRIIa_H131 (human). Further, the kon with FcγRIa (human) amounted to 636000 M⁻¹ s⁻¹; with FcγRIIIa_V158 (human) it was 167000 M⁻¹ s⁻¹; with FcγRIIIa_F158 (human), 168000 M⁻¹ s⁻¹; in the assay with FcγRIIa_R131 (human) it was 660000 M⁻¹ s⁻¹; in the assay with FcγRIIa_H131 (human), 465000 M⁻¹ s⁻¹.

B3: Penpulimab (antibody, V domains shown)
VH: B1 VH
VL: B1 VL
notes: heavy chain variable domain of penpulimab; light chain of penpulimab; Human IgG1 anti-PD-1 antibody with Fc mutations; probably a Fab; also called AK105
B3: in the assay with FcγRIIa_R131 (human), the dissociation constant (Kd) is 232 nM, the koff was 0.0938 s⁻¹ and the on-rate constant (kon) was determined as 404000 M⁻¹ s⁻¹. In assay [1], this molecule yielded a dissociation constant Kd of 0.588 nM, a koff of 9.51e-05 s⁻¹ and a kon of 162000 M⁻¹ s⁻¹.

Source of the values: paper PMC9272907, “Penpulimab, an Fc-Engineered IgG1 Anti-PD-1 Antibody, With Improved Efficacy and Low Incidence of Immune-Related Adverse Events” (Frontiers in Immunology, 2022).
